From publication PMC11169542, “A probe for NIR-II imaging and multimodal analysis of early Alzheimer’s disease by targeting CTGF” (Nature Communications, 2024)
Ends that are not written are not given here.

T1: recombinant Human CTGF protein (connective tissue growth factor) (human, UniProt P29279 27-349)
T1 construct: connective tissue growth factor (CTGF), human, recombinant; source: bought: Abcam, Cat#ab283457
T1 sequence (looked up): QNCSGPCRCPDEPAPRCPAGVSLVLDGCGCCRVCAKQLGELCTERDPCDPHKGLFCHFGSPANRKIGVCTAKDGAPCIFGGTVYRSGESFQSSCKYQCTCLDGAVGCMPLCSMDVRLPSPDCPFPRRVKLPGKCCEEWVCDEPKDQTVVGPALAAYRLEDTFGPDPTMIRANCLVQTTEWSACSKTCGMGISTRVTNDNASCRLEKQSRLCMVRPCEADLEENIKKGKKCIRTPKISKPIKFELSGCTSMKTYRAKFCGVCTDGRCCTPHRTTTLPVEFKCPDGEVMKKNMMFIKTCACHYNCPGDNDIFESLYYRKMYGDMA


Molecular target: T1, recombinant Human CTGF protein …
Assay: SPR; BIAcore 8K+; recombinant human CTGF immobilised on a CM5 chip by amine coupling; eluent PBS with 0.005% Tween 20; DAG 0.5-16 μM or DGC 0.01-0.16 μM; 25 °C
Conditions: both partners purified

Row | Binder | Kd [µM]
1 | CDAGRKQKC (other, also: Au26 nanocluster bound via Cys sulfhydryl Au-S bonds, cyclic, ring closure not given here, DAG peptide, eight copies on one Au26 gold nanocluster; One Au26 gold nanocluster coated by eight DAG peptides (by MALDI-TOF-MS); also called CTGF-targeting peptide-coated gold nanocluster; source: synthesised from DAG peptide and HAuCl4 at 55 °C, purified by ultrafiltration (MWCO 3 kDa)) [DGC probe (peptide-coated gold nanocluster, Au26DAG8)] | 0.0219
2 | CDAGRKQKC (also: cyclic peptide, ring not given here, CTGF-targeting peptide DAG; also called free DAG; DAG peptide; source: synthetic peptide (solid-phase method, Beijing Scilight Biotechnology LLC, purity 95%)) [cyclic peptide Cys-Asp-Ala-Gly-Arg-Lys-Gln-Lys-Cys (DAG)] | 22.3
